Results as given in doi:10.1101/2022.10.19.512833 (bioRxiv, 2022).

Biological target: T1, human TSG101 UEV (1-145) domain (human, UniProt Q99816 1-145)
T1 sequence (looked up): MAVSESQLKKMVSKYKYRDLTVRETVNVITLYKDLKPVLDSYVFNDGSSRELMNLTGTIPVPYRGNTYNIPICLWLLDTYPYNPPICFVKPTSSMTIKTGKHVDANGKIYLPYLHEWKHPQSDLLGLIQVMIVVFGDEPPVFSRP
Assay: fluorescence polarisation

## LQSRPEPTAPPEESFR (peptide, UniProt P04591 449-464, looked up) [GAG (HIV-1) residues 449-464, unlabeled peptide]
  Kd: 15.3 µM

## APQGLIPTAPPADPAA [GAG (HIV-2) peptide, residues 450-465, unlabeled]
  Kd: 6 µM
